Experimental data taken from FireProtDB (doi:10.1021/bi00458a027).
Several values for one entry are separate records, joined by “and”; a condition that tells them apart may be missing. Equal values may be shown once.

B1: Tryptophan synthase alpha chain, P0A877 (parent)
chain: MERYESLFAQLKERKEGAFVPFVTLGDPGIEQSLKIIDTLIEAGADALELGIPFSDPLADGPTIQNATLRAFAAGVTPAQCFEMLALIRQKHPTIPIGLLMYANLVFNKGIDEFYAQCEKVGVDSVLVADVPVEESAPFRQAALRHNVAPIFICPPNADDDLLRQIASYGRGYTYLLSRAGVTGAENRAALPLNHLVAKLKEYNAAPPLQGFGISAPDQVKAAIDAGAAGAISGSAIVKIIEQHINEPEKMLAALKVFVQPMKAATRS

Variants of: B1
Details: Escherichia coli (strain K12), pH 7.8, Urea, CD, Potassium phosphate 10 mM, structure 1WQ5, whole UniProt chain shown

## MERYESLFAQLKERKEGAFVPFVTLGDPGIEQSLKIIDTLIEAGADALELGIPFSDPLADGPTIQNATLRAFAAGVTPAQCFEMLALIRQKHPTIPIGLLMYANLVFNKGIDEFYAQCEKVGVDSVLVADVPVEESAPFRQAALRHNVAPIFICPPNADDDLLRQIASYGRGYTYLLSRAGVTGAENRAALPLNHLVAKLKEYNAAPPLQDFGISAPDQVKAAIDAGAAGAISGSAIVKIIEQHINEPEKMLAALKVFVQPMKAATRS [G211D]
25 °C
  ddG of mutation (higher = less stable): 0.3 kcal/mol and 0.8 kcal/mol
  denaturant m value: 2 kcal/mol/M and 1.2 kcal/mol/M
  denaturant midpoint (higher = more stable): 2.7 M and 3.61 M
  unfolding free energy: 5.4 kcal/mol and 4.2 kcal/mol

## MERYESLFAQLKERKEGAFVPFVTLGDPGIEQSLKIIDTLIEAGADALELGIPFSDPLADGPTIQNATLRAFAAGVTPAQCFEMLALIRQKHPTIPIGLLMYANLVFNKGIDEFYAQCEKVGVDSVLVADVPVEESAPFRQAALRHNVAPIFICPPNADDDLLRQIASYGRGYTYLLSRAGVTGAENRAALPLNHLVAKLKEYNAAPPLQVFGISAPDQVKAAIDAGAAGAISGSAIVKIIEQHINEPEKMLAALKVFVQPMKAATRS [G211V]
25 °C
  denaturant m value: 1.9 kcal/mol/M and 1.6 kcal/mol/M
  denaturant midpoint (higher = more stable): 2.78 M and 4.3 M
  unfolding free energy: 5.4 kcal/mol and 6.9 kcal/mol

## MERYESLFAQLKERKEGAFVPFVTLGDPGIEQSLKIIDTLIEAGADALELGIPFSDPLADGPTIQNATLRAFAAGVTPAQCFEMLALIRQKHPTIPIGLLMYANLVFNKGIDEFYAQCEKVGVDSVLVADVPVEESAPFRQAALRHNVAPIFICPPNADDDLLRQIASYGRGYTYLLSRAGVTGAENRAALPLNHLVAKLKEYNAAPPLQEFGISAPDQVKAAIDAGAAGAISGSAIVKIIEQHINEPEKMLAALKVFVQPMKAATRS [G211E]
25 °C
  denaturant m value: 3 kcal/mol/M and 1.5 kcal/mol/M
  denaturant midpoint (higher = more stable): 2.73 M and 3.72 M
  unfolding free energy: 8.1 kcal/mol and 5.5 kcal/mol

## MERYESLFAQLKERKEGAFVPFVTLGDPGIEQSLKIIDTLIEAGADALELGIPFSDPLADGPTIQNATLRAFAAGVTPAQCFEMLALIRQKHPTIPIGLLMYANLVFNKGIDEFYAQCEKVGVDSVLVADVPVEESAPFRQAALRHNVAPIFICPPNADDDLLRQIASYGRGYTYLLSRAGVTGAENRAALPLNHLVAKLKEYNAAPPLQWFGISAPDQVKAAIDAGAAGAISGSAIVKIIEQHINEPEKMLAALKVFVQPMKAATRS [G211W]
25 °C
  ddG of mutation (higher = less stable): 1.6 kcal/mol and 1.1 kcal/mol
  denaturant m value: 1.8 kcal/mol/M and 1.1 kcal/mol/M
  denaturant midpoint (higher = more stable): 2.25 M and 3.62 M
  unfolding free energy: 4.1 kcal/mol and 3.9 kcal/mol

## MERYESLFAQLKERKEGAFVPFVTLGDPGIEQSLKIIDTLIEAGADALELGIPFSDPLADGPTIQNATLRAFAAGVTPAQCFEMLALIRQKHPTIPIGLLMYANLVFNKGIDEFYAQCEKVGVDSVLVADVPVEESAPFRQAALRHNVAPIFICPPNADDDLLRQIASYGRGYTYLLSRAGVTGAENRAALPLNHLVAKLKEYNAAPPLQRFGISAPDQVKAAIDAGAAGAISGSAIVKIIEQHINEPEKMLAALKVFVQPMKAATRS [G211R]
4 °C
  denaturant m value: 1.6 kcal/mol/M and 2.2 kcal/mol/M
  denaturant midpoint (higher = more stable): 1.4 M and 3.28 M

## MERYESLFAQLKERKEGAFVPFVTLGDPGIEQSLKIIDTLIEAGADALELGIPFSDPLADGPTIQNATLRAFAAGVTPAQCFEMLALIRQKHPTIPIGLLMYANLVFNKGIDEFYAQCEKVGVDSVLVADVPVEESAPFRQAALRHNVAPIFICPPNADDDLLRQIASYGRGYTYLLSRAGVTGAENRAALPLNHLVAKLKEYNAAPPLQSFGISAPDQVKAAIDAGAAGAISGSAIVKIIEQHINEPEKMLAALKVFVQPMKAATRS [G211S]
25 °C
  ddG of mutation (higher = less stable): -0.2 kcal/mol
  denaturant m value: 2.4 kcal/mol/M and 1.3 kcal/mol/M
  denaturant midpoint (higher = more stable): 2.46 M and 3.97 M
  unfolding free energy: 5.9 kcal/mol and 5.2 kcal/mol
